Common to all, as to assay: SPR; IgG covalently coupled (sNHS/EDC, printed at four densities, sodium acetate pH 4.5-5.0) on a carboxymethyldextran prism (IBIS MX96 array); FcγR injected as analyte, eight part threefold dilution series generally starting between 18 and 41 µM; running buffer PBS + 0.01% BSA + Tween 20; global kinetic analysis, 1:1 model; two experiments with different preparations of FcγR
Background: In SPR one partner is held on a chip, and binding of the other changes the refractive index at the surface.

Experiment [1] concerns the target recombinant monoclonal rhesus macaque IgG3 (MM IgG3), anti-CD8α (rhesus macaque (Macaca mulatta)).
Experiment [2] has as its target recombinant monoclonal rhesus macaque IgG2 (MM IgG2), anti-CD8α (rhesus macaque (Macaca mulatta)).
Experiment [3] concerns the target recombinant monoclonal rhesus macaque IgG4 (MM IgG4), anti-CD8α (rhesus macaque (Macaca mulatta)).
Experiment [4] has as its target recombinant monoclonal rhesus macaque IgG1 (MM IgG1), anti-CD8α (rhesus macaque (Macaca mulatta)).

Values joined by “and” are separate entries in the source; they are usually repeats but may differ in a detail not shown here. Equal entries are not always repeated.

Take human FcγRIIa R131 (receptor): the Kd in experiment [1] was 25 µM and 11 µM; in experiment [2] it was 41 µM and 32 µM; in experiment [3], 20 µM and 11 µM; in experiment [4] it was 21 µM and 9 µM.

As for “human FcγRIIIb NA1 (from UniProt O75015 17-200) (receptor)”, the Kd in experiment [1] was 700 µM and 210 µM; in experiment [2], 700 µM and 250 µM; in experiment [3] it was 500 µM and 120 µM; in experiment [4] it was 18 µM and 14 µM.

Regarding “human FcγRIIb/c (from UniProt P31994 43-310) (receptor)”, the equilibrium dissociation constant (Kd) is 46 µM and 38 µM in experiment [1]; 90 µM and 125 µM in experiment [2]; 33 µM and 32 µM in experiment [3]; 53 µM and 36 µM in experiment [4].

Take “human FcγRIIIb NA2 (from UniProt O75015 17-200) (receptor)”: the Kd in experiment [1] is 510 µM and 270 µM; in experiment [3], 730 µM and 270 µM; in experiment [4], 13 µM and 15 µM.

Turning to human FcγRIIIa V158 (receptor), the equilibrium dissociation constant (Kd) is 84 µM and 27 µM in experiment [1]; 21 µM and 14 µM in experiment [2]; 29 µM in experiment [3]; 4 µM and 5 µM in experiment [4].

As for “human FcγRIIa H131 (from UniProt P12318 34-317) (receptor)”, the Kd in experiment [1] was 27 µM and 16 µM; in experiment [2], 11 µM; in experiment [3], 20 µM and 23 µM; in experiment [4], 7 µM and 9 µM.

With “human FcγRIIIb SH (from UniProt O75015 17-200) (receptor)”, the Kd is 740 µM and 350 µM in experiment [1]; 530 µM and 80 µM in experiment [2]; 465 µM and 340 µM in experiment [3]; 15 µM and 9 µM in experiment [4].

As for “human FcγRIIIa F158 (from UniProt P08637 17-254) (receptor)”, the Kd in experiment [1] was 78 µM and 33 µM; in experiment [2], 48 µM and 15 µM; in experiment [3], 48 µM and 17 µM; in experiment [4], 4 µM and 8 µM.

By Kd is commonly meant the free concentration of one partner at which half of the binding sites on the other are occupied at equilibrium, for simple one-to-one binding.

For the origin of these results see publication PMC5153528.
